The assay addresses T1, human C1s (human, UniProt P09871 16-688).
T1 sequence: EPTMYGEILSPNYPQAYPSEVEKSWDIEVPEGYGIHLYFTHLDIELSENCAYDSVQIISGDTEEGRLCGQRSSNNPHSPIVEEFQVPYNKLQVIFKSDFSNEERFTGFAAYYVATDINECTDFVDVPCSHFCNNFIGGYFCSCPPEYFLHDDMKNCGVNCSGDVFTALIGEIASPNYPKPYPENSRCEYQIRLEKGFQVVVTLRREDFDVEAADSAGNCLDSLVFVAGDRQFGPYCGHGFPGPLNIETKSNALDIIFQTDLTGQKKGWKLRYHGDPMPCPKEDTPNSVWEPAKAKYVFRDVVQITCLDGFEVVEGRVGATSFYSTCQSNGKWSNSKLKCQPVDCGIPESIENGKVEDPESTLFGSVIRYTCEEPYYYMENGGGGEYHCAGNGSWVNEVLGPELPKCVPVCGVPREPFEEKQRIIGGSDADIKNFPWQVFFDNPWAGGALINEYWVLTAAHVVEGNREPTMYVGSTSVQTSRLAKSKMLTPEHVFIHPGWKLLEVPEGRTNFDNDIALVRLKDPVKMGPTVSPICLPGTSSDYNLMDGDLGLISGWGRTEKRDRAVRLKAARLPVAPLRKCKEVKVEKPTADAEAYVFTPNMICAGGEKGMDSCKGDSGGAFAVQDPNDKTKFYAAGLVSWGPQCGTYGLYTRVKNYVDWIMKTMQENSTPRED
Kind of assay: cell-based or functional assay.

B1: BIVV009 (antibody, human IgG4 S228P, kappa, V domains shown)
VH: EVQLVESGGGLVKPGGSLRLSCAASGFTFSNYAMSWVRQAPGKGLEWVATISSGGSHTYYLDSVKGRFTISRDNSKNTLYLQMNSLRAEDTALYYCARLFTGYAMDYWGQGTLVTVSS
VL: QIVLTQSPATLSLSPGERATMSCTASSSVSSSYLHWYQQKPGKAPKLWIYSTSNLASGVPSRFSGSGSGTDYTLTISSLQPEDFATYYCHQYYRLPPITFGQGTKLEIKR
Regarding B1, the “IC50 (concentration associated to 50% of the maximum effect) on serum classical complement pathway (CP) activity, WIESLAB assay, inhibitory Emax model” value amounted to 6.2 µg/mL.
